Assay results: paper PMC7836013, “Characterization of Formononetin Sulfonation in SULT1A3 Overexpressing HKE293 Cells: Involvement of Multidrug Resistance-Associated Protein 4 in Excretion of Sulfate” (Frontiers in Pharmacology, 2021)

Columns and labels:
[1] = substrate: COc1ccc(-c2coc3cc(O)ccc3c2=O)cc1; assay: Formononetin sulfonation enzyme kinetics in HEK-SULT1A3 cell lysate; assay type: in vitro ADME, human; details: other: HEK-SULT1A3 cell lysate, Michaelis-Menten, mean ± SD (n = 3); pH 7.4
Procedure: (§1) Enzyme kinetic of formononetin incubated with recombinant human SULT1A3 enzyme (rSULT1A3) was evaluated. The reaction was activated after the coenzyme PAPS (which provides sulfonate group to the substrates) was added. The incubation reaction was conducted in 200 μL potassium phosphate buffer (50 mM, pH 7.4) at 37°C, containing SULT1A3 enzyme (0.1 mg/ml), formononetin (0.16–40 μM), and PAPS (a final concentration of 0.10 mM). After incubation for 120 min, the reaction was terminated by adding 100 μL ice-cold acetonitrile. Then the samples were vortexed and centrifuged at 15,000 g for 15 min. The supernatant was analyzed by HPLC for sulfate quantification. All incubations were performed in triplicate. Preliminary experiments were performed to ensure that the rates of sulfation were determined under linear conditions with respect to incubation time and protein concentration.
The sulfonation rates of formononetin at different concentrations were determined according to the sulfonation assay protocol. The kinetic model Michaelis-Menten (Eq. 1) was fitted to the data of sulfonation rates vs. formononetin concentrations. […] The intrinsic clearance (CLint) was calculated by Vmax/Km.
Quantification of formononetin sulfate was performed using Agilent 1,260 Infinity II HPLC system with a ZORBAX SB-C18 column (4.6 × 250 mm, 5 μm; Agilent). […] The samples were analyzed using a gradient of ammonium acetate (2.5 mM) in water (mobile phase A) vs. acetonitrile (mobile phase B) at a flow rate of 1.0 ml/min. […]
HEK293 cells were stably transfected with the cDNA of Human SULT1A3 enzyme through the lentiviral transduction approach ([Sun et al., 2015]), which were named as HEK-SULT1A3 cells. The transduction efficiency was evaluated by measuring the SULT1A3 protein levels in both control and transfected cells. The enzyme function of HEK-SULT1A3 cells was further determined using sulfonation assay. […] Then, in order to identify the function of HEK-SULT1A3 cells in sulfate generation, formononetin was incubated with the HEK-SULT1A3 cell lysate and enzyme kinetic was determined as described above.

[2] = substrate: COc1ccc(-c2coc3cc(O)ccc3c2=O)cc1; assay: Formononetin sulfonation enzyme kinetics in recombinant human SULT1A3; assay type: in vitro ADME; details: other: rSULT1A3, Michaelis-Menten, mean ± SD (n = 3); pH 7.4
Procedure: as §1
The sulfonation rates of formononetin at different concentrations were determined according to the sulfonation assay protocol. The kinetic model Michaelis-Menten (Eq. 1) was fitted to the data of sulfonation rates vs. formononetin concentrations. Model selection was based on visual inspection of the Eadie-Hofstee plot. […] Model fitting and kinetic parameters evaluation were performed using GraphPad Prism software (5.3 version). V=Vmax·[S]/Km+[S] (1) where Vmax is the maximal velocity and Km is the Michaelis constant. The intrinsic clearance (CLint) was calculated by Vmax/Km.
Quantification of formononetin sulfate was performed using Agilent 1,260 Infinity II HPLC system with a ZORBAX SB-C18 column (4.6 × 250 mm, 5 μm; Agilent). The temperature of the column was set at 40 °C. The samples were analyzed using a gradient of ammonium acetate (2.5 mM) in water (mobile phase A) vs. acetonitrile (mobile phase B) at a flow rate of 1.0 ml/min. The gradient elution condition was 15% B at 0–2.0 min, 15–95% B at 2.0–12 min, 95% B at 12–15 min, and 95–15% B at 15–18 min. The waiting time was 7.0 min at 15% B in order to ensure the column pressure is back to a stable state before the next injection. […]

B1: HEK-SULT1A3 cell lysate (Homo sapiens) (protein)
chain: MELIQDTSRPPLEYVKGVPLIKYFAEALGPLQSFQARPDDLLINTYPKSGTTWVSQILDMIYQGGDLEKCNRAPIYVRVPFLEVNDPGEPSGLETLKDTPPPRLIKSHLPLALLPQTLLDQKVKVVYVARNPKDVAVSYYHFHRMEKAHPEPGTWDSFLEKFMAGEVSYGSWYQHVQEWWELSRTHPVLYLFYEDMKENPKREIQKILEFVGRSLPEETMDFMVQHTSFKEMKKNPMTNYTTVPQELMDHSISPFMRKGMAGDWKTTFTVAQNERFDADYAEKMAGCSLSFRSEL
notes: expressed in transfected cells; cell lysate used
Km [1]: 6.17 µM | Vmax [1]: 13.94 pmol/min/mg | Vmax/Km [1]: 2.26 ± 0.42 µL/min/mg

B2: Recombinant human SULT1A3 enzymes (rSULT1A3) (Homo sapiens) (protein)
chain: MELIQDTSRPPLEYVKGVPLIKYFAEALGPLQSFQARPDDLLINTYPKSGTTWVSQILDMIYQGGDLEKCNRAPIYVRVPFLEVNDPGEPSGLETLKDTPPPRLIKSHLPLALLPQTLLDQKVKVVYVARNPKDVAVSYYHFHRMEKAHPEPGTWDSFLEKFMAGEVSYGSWYQHVQEWWELSRTHPVLYLFYEDMKENPKREIQKILEFVGRSLPEETMDFMVQHTSFKEMKKNPMTNYTTVPQELMDHSISPFMRKGMAGDWKTTFTVAQNERFDADYAEKMAGCSLSFRSEL
notes: purchased Sekisui XenoTech LCC (Kansas, USA)
Km [2]: 6.01 ± 0.97 µM | Vmax [2]: 145.30 ± 7.91 pmol/min/mg | Vmax/Km [2]: 24.18 ± 4.13 µL/min/mg
